Data published in the supplement of paper PMC10126150.
± gives the standard deviation of the averaged measurements.

test system: ATP; test: switch fluorescence ratio, 500 uM ATP over buffer (Cy3 cluster intensity, sum of 5 cycles each) (fold (ratio)); higher = stronger signal-on switching upon ATP binding; sequences stand for … in TCGTCGGCAGCGTCAGATGTGTATAAGAGACAGTTTTTTTTTTTTTTTTTTTTTTTTT…TC; settings: aptamer strand: ATP DNA aptamer (quencher-CACCTGGGGGAGTATTGCGGAGGAAGG + anchor), 100 nM annealed; ATP concentration: 500 uM
In short: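 Cy3-labelled switching-strand clusters on a modified Illumina MiSeq flow-cell were annealed to 100 nM quencher-labelled ATP aptamer and imaged first in selection buffer, then after 15 min with 500 uM ATP at 22 °C. NaOH stripping and re-annealing separated each of five buffer/ATP cycles, and clusters outside 100-1000 RFU were excluded. The fluorescence ratio sums target-cycle Cy3 intensity over buffer-cycle Cy3 intensity per cluster and averages it per switch-domain sequence.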
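Further: ATP exposure 15 min at 22 °C before imaging.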

Sequence | switch fluorescence ratio
AGGGCGGTGT | 0.991 ± 0.027
CAGATTTTTA | 1.01 ± 0.029
GGGATTTTTT | 1.06 ± 0.16
AGCAGAGGGA | 1.01 ± 0.011
TAGCACCATT | 1.1 ± 0.072
GATTAGGGGT | 0.99655 ± 0.00059
AAAGGGGTTA | 1 ± 0.024
CGAGATGGGT | 0.974 ± 0.028
ACGAGGGAGC | 1.05 ± 0.017
TTGGGTGGCG | 1.04 ± 0.12
GTACTTTAAT | 1.034 ± 0.0036
TTTCTTTCGG | 1.03 ± 0.048
GATGTTCCGT | 0.9958 ± 0.0049
TTTGGCACAC | 1.046 ± 0.0048
TGGTGGAGGT | 0.977 ± 0.011
CGTACAGGGG | 1.207 ± 0.004
GCGGATTTGT | 0.998 ± 0.038
GGCTTGAACA | 1.01 ± 0.034
CGGACGAGAG | 0.998 ± 0.022
GCGGGTTTTC | 1.03 ± 0.017
TCCACCGTTC | 1.66 ± 0.77
AAGCCAGCTC | 1.02 ± 0.037

Sequence | switch fluorescence ratio
AAATCATTAA | 1.02 ± 0.018
CCGAGCGGGA | 1.77 ± 0.37
ATTATACTTC | 1.04 ± 0.013
TGTGTGTTGG | 0.993 ± 0.024
GTTGGCGGGC | 0.997 ± 0.036
TATCCTTAGG | 1.01 ± 0.059
AGGGGCTTTA | 1.14 ± 0.2
TTCGCTGGGT | 0.995 ± 0.017
GGGGGGGTT | 1 ± 0.025
TGGGAAATTA | 0.999 ± 0.024
TAAGGGGTAT | 0.985 ± 0.032
TTTTGTGGG | 0.966 ± 0.046
TAAAAGGTTG | 0.989 ± 0.033
CAGAGTGTGG | 0.955 ± 0.026
TATTGGGTAT | 1.03 ± 0.038
TTAATGCAAC | 1.01 ± 0.021
GATCGCCCCG | 1 ± 0.02
TTCAATGTAG | 1 ± 0.029
ATTCGCTTCT | 1.02 ± 0.013
TTTGACAAAC | 1.1 ± 0.073
TTTATGGGG | 0.965 ± 0.08
TAGGGTGTGT | 0.952 ± 0.016

Sequence | switch fluorescence ratio
TGTGAGGTTC | 0.9675 ± 0.0075
TTAAGGTAAA | 1.01 ± 0.049
CACTGACTTA | 1.19 ± 0.032
CATAGTTTGG | 1.07 ± 0.034
AGGGTATTCG | 0.9981 ± 0.0049
CTAGGGTTCT | 1.03 ± 0.019
TTGGCCGGGG | 1.01 ± 0.029
TTACAGGGGC | 1.11 ± 0.061
TTGCGGCTGG | 0.974 ± 0.031
TTCTACTGGG | 1.01 ± 0.028
GGGGTAAACT | 1.01 ± 0.034
CTGTGGGCGC | 1.01 ± 0.027
TTCAGTATGG | 0.9614 ± 0.0068
GCTTATGTAC | 1.16 ± 0.019
TCGAGTAAGG | 1.18 ± 0.28
TAGTGCAATA | 1.6994 ± 0.00043
TTGCATCTTG | 1.01 ± 0.033
GCGCTAGCAG | 0.99 ± 0.018
AGACGGGTGC | 1.08 ± 0.074
GGATCTACCG | 1.01 ± 0.032
TGGTTTCATT | 1.01 ± 0.017
TCAAACTTTA | 1.03 ± 0.025

Sequence | switch fluorescence ratio
GAAATAATGT | 1.03 ± 0.055
TAGTCGAGAC | 1.01 ± 0.018
TATTTGTGTT | 0.997 ± 0.016
AGAATGTTTT | 0.989 ± 0.033
CATTCATGTT | 0.985 ± 0.024
TCAGAAAGTG | 1 ± 0.041
TTAGCAACGA | 1.09 ± 0.039
TACCATGGTA | 0.987 ± 0.035
GCTTTTGAGG | 1.04 ± 0.012
GCATTGAGTG | 0.978 ± 0.03
CAGAGTACGT | 1.036 ± 0.0091
CTTGGCAGGG | 0.99 ± 0.02
CTGGGTAGAC | 1.08 ± 0.011
AGAGGCTCAG | 1.08 ± 0.069
AAGCATTTGT | 0.9976 ± 0.0089
TTGTCAGTTT | 1.03 ± 0.079
GCGGGGCCAG | 0.982 ± 0.011
ATGAGATCAG | 1.003 ± 0.005
ATTCGGCGGA | 1.03 ± 0.068
